Measured values reported in patent US20140242111A1.

Molecular target: insulin receptor on differentiated 3T3-L1 adipocytes (mouse (murine 3T3-L1 cell line)) (UniProt P15208)
Assay: cell-based or functional assay

Chain of insulin receptor on differentiated 3T3-L1 adipocytes (mouse (murine 3T3-L1 cell line)) (P15208 28-1372): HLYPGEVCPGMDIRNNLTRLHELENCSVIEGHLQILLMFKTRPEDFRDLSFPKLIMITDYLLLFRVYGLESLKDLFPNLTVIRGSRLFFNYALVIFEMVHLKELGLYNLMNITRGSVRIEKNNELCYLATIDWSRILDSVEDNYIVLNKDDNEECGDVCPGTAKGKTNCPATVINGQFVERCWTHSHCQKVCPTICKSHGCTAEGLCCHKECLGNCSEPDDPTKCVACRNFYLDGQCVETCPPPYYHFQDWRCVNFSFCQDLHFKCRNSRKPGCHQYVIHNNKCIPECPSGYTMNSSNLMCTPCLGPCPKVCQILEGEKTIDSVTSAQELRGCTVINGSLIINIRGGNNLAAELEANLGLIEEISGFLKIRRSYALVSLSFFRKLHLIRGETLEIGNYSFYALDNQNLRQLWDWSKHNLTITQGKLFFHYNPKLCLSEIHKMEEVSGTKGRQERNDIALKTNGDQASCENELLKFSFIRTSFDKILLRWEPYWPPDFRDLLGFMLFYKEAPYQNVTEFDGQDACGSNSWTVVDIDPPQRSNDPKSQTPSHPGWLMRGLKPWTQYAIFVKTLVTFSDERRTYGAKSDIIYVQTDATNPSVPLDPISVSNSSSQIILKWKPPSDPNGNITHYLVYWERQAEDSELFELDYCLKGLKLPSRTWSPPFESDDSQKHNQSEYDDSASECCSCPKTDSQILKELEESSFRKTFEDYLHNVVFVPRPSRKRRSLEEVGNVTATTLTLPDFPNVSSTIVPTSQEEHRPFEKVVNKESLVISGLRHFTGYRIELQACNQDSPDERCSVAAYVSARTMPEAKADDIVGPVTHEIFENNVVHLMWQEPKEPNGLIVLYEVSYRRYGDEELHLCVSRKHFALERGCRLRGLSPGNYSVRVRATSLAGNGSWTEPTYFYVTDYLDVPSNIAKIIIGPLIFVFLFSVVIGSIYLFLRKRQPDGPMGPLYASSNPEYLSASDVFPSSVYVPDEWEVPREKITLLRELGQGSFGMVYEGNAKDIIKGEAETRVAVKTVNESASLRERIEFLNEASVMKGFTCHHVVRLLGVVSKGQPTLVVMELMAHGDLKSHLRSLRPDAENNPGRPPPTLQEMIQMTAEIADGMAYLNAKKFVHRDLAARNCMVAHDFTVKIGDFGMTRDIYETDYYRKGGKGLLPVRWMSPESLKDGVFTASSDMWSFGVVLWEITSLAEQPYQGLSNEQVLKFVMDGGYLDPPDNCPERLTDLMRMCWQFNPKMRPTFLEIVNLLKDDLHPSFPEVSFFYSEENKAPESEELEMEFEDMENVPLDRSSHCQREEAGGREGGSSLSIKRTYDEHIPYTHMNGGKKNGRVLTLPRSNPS

| Binder | Insulin activity (no tag), p-Akt on 3T3-L1 adipocytes; culture: M17 only (nM commercial insulin (equivalent)) | Insulin activity (no tag), p-Akt on 3T3-L1 adipocytes; culture: M17 with 50 mM sodium phosphates (nM commercial insulin (equivalent)) | Insulin activity (no tag), p-Akt on 3T3-L1 adipocytes; culture: M17 with NaOH addition at 1.5 hr (nM commercial insulin (equivalent)) | Insulin activity (with RGS-His tag), p-Akt on 3T3-L1 adipocytes; culture: M17 with NaOH addition at 0.5 hr (nM commercial insulin (equivalent)) | Insulin activity (with RGS-His tag), p-Akt on 3T3-L1 adipocytes; culture: M17 with NaOH addition at 1.5 hr (nM commercial insulin (equivalent)) | Insulin activity (with RGS-His tag), p-Akt on 3T3-L1 adipocytes; culture: M17 with NaOH addition at 2.5 hr (nM commercial insulin (equivalent)) | Insulin activity (with RGS-His tag), p-Akt on 3T3-L1 adipocytes; culture: M17 with NaOH addition every hour (nM commercial insulin (equivalent)) | p-Akt(Ser473) Western blot on differentiated 3T3-L1 adipocytes, quantified from three independent experiments; supernatant of induced culture treated with NaOH (scale: nM commercial insulin) |
| --- | --- | --- | --- | --- | --- | --- | --- | --- |
| SCI-57 without RGS-His tag (single-chain insulin analog secreted by L. lactis NZ9000(pNZPnisA:uspSCI-57)) (ligand) FVNQHLCGSDLVEALYLVCGERGFFYTDPTGGGPRRGIVEQCCHSICSLYQLENYCN | < 1 | < 1 | > 1 |  |  |  |  |  |
| RGS-His-tagged SCI-57 (single-chain insulin analog secreted by L. lactis NZ9000(pNZPnisA:uspSCI-57his), usp45 signal peptide cleaved) (ligand) FVNQHLCGSDLVEALYLVCGERGFFYTDPTGGGPRRGIVEQCCHSICSLYQLENYCNRGSHHHHHH |  |  |  | 1 | 1 | < 1 | 1 | 1 |
